Target: GST–BIR3 fusion protein (XIAP BIR3 domain)
Assay: FMAT bead-based fluorescence competition assay

An IC50 greater than 10 µM was found for “Smac N-terminal tripeptide AVP (compound 5)” in this work.
